Assay results as given in IntAct's records for PubMed 29039417.

B1: BBSome complex member BBS5 (Homo sapiens), Q8N3I7 (parent)
chain: MSVLDALWEDRDVRFDLSAQQMKTRPGEVLIDCLDSIEDTKGNNGDRGRLLVTNLRILWHSLALSRVNVSVGYNCILNITTRTANSKLRGQTEALYILTKCNSTRFEFIFTNLVPGSPRLFTSVMAVHRAYETSKMYRDFKLRSALIQNKQLRLLPQEHVYDKINGVWNLSSDQGNLGTFFITNVRIVWHANMNDSFNVSIPYLQIRSIKIRDSKFGLALVIESSQQSGGYVLGFKIDPVEKLQESVKEINSLHKVYSASPIFGVDYEMEEKPQPLEALTVEQIQDDVEIDSDGHTDAFVAYFADGNKQQDREPVFSEELGLAIEKLKDGFTLQGLWEVMS
partner: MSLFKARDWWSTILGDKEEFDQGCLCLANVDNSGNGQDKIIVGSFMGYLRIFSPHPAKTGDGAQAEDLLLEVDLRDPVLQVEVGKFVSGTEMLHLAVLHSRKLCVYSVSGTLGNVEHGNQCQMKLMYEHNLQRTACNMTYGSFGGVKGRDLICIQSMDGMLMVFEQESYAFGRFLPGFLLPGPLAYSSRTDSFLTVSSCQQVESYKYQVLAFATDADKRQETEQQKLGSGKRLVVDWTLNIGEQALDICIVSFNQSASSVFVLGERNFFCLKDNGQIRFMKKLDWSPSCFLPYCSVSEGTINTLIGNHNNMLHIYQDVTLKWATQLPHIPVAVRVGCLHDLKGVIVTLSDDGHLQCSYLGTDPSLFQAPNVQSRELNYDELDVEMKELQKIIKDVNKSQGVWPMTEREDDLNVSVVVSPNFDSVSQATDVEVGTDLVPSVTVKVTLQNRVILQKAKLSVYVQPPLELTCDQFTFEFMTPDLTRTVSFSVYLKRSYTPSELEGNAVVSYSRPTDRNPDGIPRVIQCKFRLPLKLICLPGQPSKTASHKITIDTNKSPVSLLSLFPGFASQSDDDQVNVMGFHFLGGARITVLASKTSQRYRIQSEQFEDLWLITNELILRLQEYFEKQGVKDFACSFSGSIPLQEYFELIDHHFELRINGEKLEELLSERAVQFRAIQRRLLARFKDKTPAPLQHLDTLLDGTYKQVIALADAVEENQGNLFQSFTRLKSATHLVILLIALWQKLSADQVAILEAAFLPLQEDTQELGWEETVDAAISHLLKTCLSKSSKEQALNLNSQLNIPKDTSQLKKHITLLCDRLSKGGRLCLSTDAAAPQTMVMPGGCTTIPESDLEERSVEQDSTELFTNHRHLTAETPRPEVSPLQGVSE

Variants of: B1
Conditions: with pthb1_human BBS9, Q3SYG4

Row | Variant | effect of a mutation on the interaction
1 | L51E | with no effect
2 | L51K | with no effect
3 | L51A | with no effect
4 | C33E | with no effect
5 | C33A | with no effect
6 | C33K | with no effect
7 | Q21E | with no effect
8 | Q21A | with no effect
9 | Q21K | with no effect
10 | L30P | disrupting interaction strength
11 | L30E | with no effect
12 | L30K | with no effect
13 | L30A | with no effect
14 | L34K | with no effect
15 | L34E | with no effect
16 | L34A | with no effect
17 | D35K | with no effect
18 | D35E | with no effect
19 | D35A | with no effect
20 | D12K | disrupting interaction strength
21 | D12A | with no effect
22 | D12E | with no effect
23 | D16K | with no effect
24 | D16E | with no effect

Row | Variant | effect of a mutation on the interaction
25 | D16A | with no effect
26 | D16S | disrupting interaction strength
27 | D10A | with no effect
28 | D10E | with no effect
29 | D10K | with no effect
30 | L50K | with no effect
31 | L50A | disrupting interaction strength
32 | L50E | with no effect
33 | L55E | disrupting interaction strength
34 | L55K | with no effect
35 | L55F | disrupting interaction strength
36 | L55A | disrupting interaction strength
37 | D39E | with no effect
38 | D39K | with no effect
39 | D39A | with no effect
40 | V29E | with no effect
41 | V29A | disrupting interaction strength
42 | V29K | disrupting interaction strength
43 | G48E | with no effect
44 | G48S | disrupting interaction strength
45 | G48K | with no effect
46 | G48A | with no effect
47 | L17A | disrupting interaction strength
48 | L17K | disrupting interaction strength

Row | Variant | effect of a mutation on the interaction
49 | L17R | disrupting interaction strength
50 | L17E | disrupting interaction strength
51 | S36A | with no effect
52 | S36E | with no effect
53 | S36K | with no effect
54 | I37A | with no effect
55 | I37E | with no effect
56 | I37K | with no effect
57 | S2K | with no effect
58 | D46A | with no effect
59 | D46E | with no effect
60 | D46K | with no effect
61 | D46N | disrupting interaction strength
62 | Q20A | disrupting interaction strength
63 | Q20E | with no effect
64 | Q20K | with no effect
65 | R56A | disrupting interaction strength
66 | R56E | disrupting interaction strength
67 | I31K | with no effect
68 | I31A | disrupting interaction strength
69 | I31E | with no effect
70 | R49E | with no effect
71 | R49K | with no effect
72 | R49A | with no effect

Row | Variant | effect of a mutation on the interaction
73 | G45E | with no effect
74 | G45A | with no effect
75 | G45K | with no effect
76 | L4E | with no effect
77 | L4K | with no effect
78 | L4A | with no effect
79 | N54E | disrupting interaction strength
80 | N54A | with no effect
81 | N54K | with no effect
82 | T53E | with no effect
83 | T53A | with no effect
84 | T53K | with no effect
85 | K41A | with no effect
86 | K41E | with no effect
87 | G42K | with no effect
88 | G42E | disrupting interaction strength
89 | G42A | with no effect
90 | W8A | with no effect
91 | W8K | with no effect
92 | W8E | with no effect
93 | S18E | with no effect
94 | S18K | with no effect
95 | S18A | with no effect
96 | D32G | disrupting interaction strength

Row | Variant | effect of a mutation on the interaction
97 | D32K | with no effect
98 | D32E | with no effect
99 | D32A | with no effect
100 | M22A | disrupting interaction strength
101 | M22K | disrupting interaction strength
102 | M22E | disrupting interaction strength
103 | T40K | with no effect
104 | T40A | with no effect
105 | T40E | with no effect
106 | E38K | with no effect
107 | E38A | with no effect
108 | P26E | disrupting interaction strength
109 | P26A | with no effect
110 | P26K | with no effect
111 | E9K | with no effect
112 | E9A | with no effect
113 | R47K | with no effect
114 | R47A | with no effect
115 | R47E | with no effect
116 | R25A | with no effect
117 | R25K | disrupting interaction strength
118 | R25E | disrupting interaction strength
119 | R11E | disrupting interaction strength
120 | R11W | disrupting interaction strength

Row | Variant | effect of a mutation on the interaction
121 | R11K | with no effect
122 | R11A | disrupting interaction strength
123 | D5K | with no effect
124 | D5E | with no effect
125 | D5A | with no effect
126 | G27E | disrupting interaction strength
127 | G27A | disrupting interaction strength
128 | G27R | disrupting interaction strength
129 | G27K | with no effect
130 | V3E | with no effect
131 | V3A | with no effect
132 | V3K | with no effect
133 | A19K | with no effect
134 | A19E | with no effect
135 | V52E | with no effect
136 | V52A | with no effect
137 | V52K | disrupting interaction strength
138 | T24E | with no effect
139 | T24A | with no effect
140 | T24K | with no effect
141 | L7K | with no effect
142 | L7A | with no effect
143 | L7E | with no effect
144 | F15E | disrupting interaction strength

Row | Variant | effect of a mutation on the interaction
145 | F15K | with no effect
146 | F15A | disrupting interaction strength
147 | F15L | disrupting interaction strength
148 | E28K | disrupting interaction strength
149 | E28A | disrupting interaction strength
150 | V13A | disrupting interaction strength
151 | V13E | disrupting interaction strength
152 | V13K | disrupting interaction strength
153 | N44A | with no effect
154 | N44E | with no effect
155 | N44K | with no effect
156 | A6E | with no effect
157 | A6K | with no effect
158 | R14E | disrupting interaction strength
159 | R14K | with no effect
160 | R14A | with no effect
161 | N43A | with no effect
162 | N43E | with no effect
163 | N43K | with no effect
164 | K23E | with no effect
165 | K23A | with no effect
